In the assay the target is neuropilin-1 (NRP-1) receptor on PPC-1 prostate cancer cells (human) (UniProt O14786). Description: cell-based or functional assay.

For one substance, GFP internalized per PPC-1 cell (cell lysate fluorescence) (GFP molecules per cell) and nanoshells internalized per PPC-1 cell (calculated from cell lysate fluorescence) (RPARPAR GFP-HGN per cell) results are on record in US20150343090A1.

UniProt O14786, sequence (O14786 22-923): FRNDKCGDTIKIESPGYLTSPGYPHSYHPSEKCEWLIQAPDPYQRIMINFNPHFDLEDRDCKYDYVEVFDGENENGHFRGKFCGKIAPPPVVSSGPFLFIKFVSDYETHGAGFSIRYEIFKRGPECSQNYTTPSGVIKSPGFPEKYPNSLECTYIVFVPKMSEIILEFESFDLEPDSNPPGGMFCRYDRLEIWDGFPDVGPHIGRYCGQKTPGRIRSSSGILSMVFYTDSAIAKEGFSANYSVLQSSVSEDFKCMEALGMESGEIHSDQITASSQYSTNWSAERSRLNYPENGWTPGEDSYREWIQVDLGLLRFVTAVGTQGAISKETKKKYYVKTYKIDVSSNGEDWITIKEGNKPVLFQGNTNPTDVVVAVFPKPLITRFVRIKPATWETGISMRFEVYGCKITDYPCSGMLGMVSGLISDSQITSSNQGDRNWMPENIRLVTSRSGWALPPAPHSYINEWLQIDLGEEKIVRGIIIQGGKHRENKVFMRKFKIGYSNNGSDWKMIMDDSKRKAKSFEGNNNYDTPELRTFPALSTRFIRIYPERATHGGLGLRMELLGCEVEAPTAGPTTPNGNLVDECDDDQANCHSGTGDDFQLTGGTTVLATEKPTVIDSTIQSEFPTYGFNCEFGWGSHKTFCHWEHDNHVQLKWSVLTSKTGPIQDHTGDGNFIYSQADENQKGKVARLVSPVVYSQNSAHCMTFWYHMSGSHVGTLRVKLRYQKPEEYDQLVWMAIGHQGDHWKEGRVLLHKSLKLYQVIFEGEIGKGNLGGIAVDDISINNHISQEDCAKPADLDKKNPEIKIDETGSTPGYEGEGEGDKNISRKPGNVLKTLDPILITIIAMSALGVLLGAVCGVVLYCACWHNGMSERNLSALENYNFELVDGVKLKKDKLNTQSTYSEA

As to “His-tag-GFP-RPARPAR (RPARPAR-modified GFP fusion protein) loaded on NTA-Ni hollow gold nanoshells”, the GFP internalized per PPC-1 cell (cell lysate fluorescence) (GFP molecules per cell) was determined as 100000 and the nanoshells internalized per PPC-1 cell (calculated from cell lysate fluorescence) (RPARPAR GFP-HGN per cell) is 200.
